# Laboratory results taken from the DeepSol protein solubility set.
# Experiment: soluble on expression in E. coli; label from the status in PepcDB or PDB records
row,Sequence,soluble on expression in E. coli
1,TKDLPIHACSYCGIHDPACVVYCNTSKKWFCNGRGNTSGSHIVNHLVRAKCKEVTLHKDGPLGETVLECYNCGCRNVFLLGFIPAKADSVVVLLCRQPCASQSSLKDINWDSSQWQPLIQDRCFLSWLVKIPSEQEQLRARQITAQQINKLEELWKENPSATLEDLEKPGVDEEPQHVLLRYEDAYQYQNIFGPLVKLEADYDKKLKESQTQDNITVRWDLGLNKKRIAYFTLPKTDSDMRLMQGDEICLRYKGDLAPLWKGIGHVIKVPDNYGDEIAIELRSSVGAPVEVTHNFQVDFVWKSTSFDRMQSALKTFAVDETSVSGYIYHKLLGHEVEDVIIKCQLPKRFTAQGLPDLNHSQVYAVKTVLQRPLSLIQGPPGTGKTVTSATIVYHLARQGNGPVLVCAPSNIAVDQLTEKIHQTGLKVVRLCAKSREAIDSPVSFLALHNQIRNMDSMPELQKLQQLKDETGELSSADEKRYRALKRTAERELLMNADVICCTCVGAGDPRLAKMQFRSILIDESTQATEPECMVPVVLGAKQLILVGDHCQLGPVVMCKKAAKAGLSQSLFERLVVLGIRPIRLQVQYRMHPALSAFPSNIFYEGSLQNGVTAADRVKKGFDFQWPQPDKPMFFYVTQGQEEIASSGTSYLNRTEAANVEKITTKLLKAGAKPDQIGIITPYEGQRSYLVQYMQFSGSLHTKLYQEVEIASVDAFQGREKDFIILSCVRANEHQGIGFLNDPRRLNVALTRARYGVIIVGNPKALSKQPLWNHLLNYYKEQKVLVEGPLNNLRESLMQFS,soluble
2,STVLIVSQEHQKIKTYINTVADRGVTEIPVKGGYSGTNQIMLMTTIAGYEFAKLQEAIAEIDETAFITVTPTSQASGRGFSLQKNHGRLDEDILMPM,not soluble
3,MGSDKIHHHHHHNNDDDGTNKAQEIAGKYEGYSIGNCAMFTDYVMGEKSVATIVPNEDGTINVTYDSGSGEFKLNNIKVTSKTFEGSGQVELSMNDKPAGAKDFTLTGSIDEQQKLTLKVNVPSVMGGLTIEFIQGTLPISYHVSGTYNKEANLSVSVGSTTYPDITDCKVSIKRSSDDTVELTLKGLSNLNSSQTGRAMNLGDFTVTDVKVTSTDNSIFKIEGSINTTDTNNTPITGTLSGTVSNSETNITFTFKPGAMPIDITAMFKGKK,not soluble
4,MNKYFYDGTPEGLVSAIGAILESGDDPEQTVLSIRQDTLFEEGLFLRTDSAVAEALFQRLRERAPDAVQTLWYFTMTEVDGLATSLLRYIALAFEHGDQVNGYLTHPDVKAVVATARKVGRELHRMKGLLRFEQLRDGTWLARMEPDHNVIQPLARHFSRRLRTQEWFIYDARRHSAAHWDGHALSFGTLERFSRPELSPEERVMQQLWQTFFKTIAIPERKNPRLQQSNMPAKYWKYLTEKQGE,not soluble
5,MGSDKIHHHHHHMIETRQKQERVILIGVALPNSENFDLSMEELASLAKTAGAEVVQTHTQKRDHYDSKSFIGSGKLLEIKQIIATDAIDSVIVNNRLTPRQNAYLEAELGVKVIDRMQLILDIFAMRARSHEGKLQVHLAQLKYMLPRLVGQGIMLSRQAGGIGSRGPGESQLELNRRSIRKQIADIERQLKNAEKNRETNREKRLDSQIFKIGLIGYTNAGKSTIMNVLTDNKQYEADELFATLDATTKQIYLTDHFQATLTDTVGFIQDLPTELVAAFKSTLEESRQVDLLLHVIDASDPNHEEHEKVVHDLLKELGMTAIPRLLVYNKMDKAENFIASQFPHISLSAKSDEAAALLRQSILEKIKTLFVPFTITWRQEKSYKLYELDKIALLTSYDVKQELQEIKGYISEKNKWRLEEFYRELS,not soluble
6,MGSDKIHHHHHHMSVSSTIEWTEATWNPTTGCHKISPGCKNCYAERFAERWRGVAGHPYEQGFDVKTWHERLKMPLSWKKPRLIFVNSMSDLFLDDISEEFIKDVFNVMEEASWHQFQVLTKRPQRMLKIANSIKKWPSNIWAGVSIESQAWVWRSEILKEIPAKIRFLSCEPLLGSLTLSLDELHWIIVGGESGVGARPMNIEWVRDIREQCIQANVPFFFKQWGGIQKKKYGREIDGRTWDGFPETIVDKNTKQVSPVK,not soluble
